Test results as given in article PMC11180644, “Discovery, characterization and mechanism of a Microbacterium esterase for key d-biotin chiral intermediate synthesis” (Bioresources and Bioprocessing, 2024).

Substrate: COC(=O)[C@@H]1[C@H](C(=O)OC)N(Cc2ccccc2)C(=O)N1Cc1ccccc1
Assay: HPLC of released monomethyl ester; Michaelis-Menten fit (GraphPad Prism)
Assay type: biochemical, Microbacterium aurantiacum
Settings: 0.2 mol/L PBS pH 8.0, 30 °C, 10 min, DMSO as substrate solvent, 0.1-12 mmol/L diester
Text: HPLC of released monomethyl ester; Michaelis-Menten fit (GraphPad Prism) on […]01 | the Km value

B1: EstSIT01 (Microbacterium aurantiacum) (protein)
chain: MTLFDGITSRIVDTDRLTVNILERAADDPQTPPDRTVVFVHGNVSSALFWQEIMQDLPSDLRAIAVDLRGFGGSEHAPVDATRGVRDFSDDLHATLEALDIPVAHLVGWSMGGGVVMQYALDHPVLSLTLQSPVSPYGFGGTRRDGSRLTDDDAGCGGGGANPDFIQRLIDHDTSDDAQTSPRSVFRAGYVASDYTTDHEDVWVESMLTTSTADGNYPGDAVPSDNWPGFAAGRHGVLNTMAPQYFDVSGIVDLAEKPPILWIHGTADAIVSDASFYDLNYLGQLGIVPGWPGEDVAPAQEMVSQTRDVLGRYAAGGGTVTEVAVEGAGHSAHLERPAVFRHALLEIIGYVGAAADPAPPTEAIIIRSAD
notes: C-terminal 6xHis tag, pET21a, E. coli BL21(DE3), Ni-NTA purified; catalytic triad Ser110-His330-Asp268
In the case of B1, the Km is reported as 147 µM and the kcat is reported as 5.808 s⁻¹.
